# Measurements published in patent US20260062456A1 (ALPINE IMMUNE SCIENCES, published 2026).
# Where a chain is given by its changes, count along the chain named. In names and notes the source's numbering stands.
# B1: variant PD-L1 ECD-Fc E27D, N45D, T183A, I188V (Fc fusion, not shown: a dimerising Fc or GST)
# chain: FTVTVPKDLYVVEYGSNMTIECKFPVDKQLDLAALIVYWEMEDKDIIQFVHGEEDLKVQHSSYRQRARLLKDQLSLGNAALQITDVKLQDAGVYRCMISYGGADYKRITVKVNAPYNKINQRILVVDPVTSEHELTCQAEGYPKAEVIWTSSDHQVLSGKTTTTNSKREEKLFNVTSTLRINATTNEVFYCTFRRLDPEENHTAELVIPELPLAHPPNER
# B2: variant PD-L1 ECD-Fc K28R, N45D, V129D, T163N, R195T (Fc fusion, not shown: a dimerising Fc or GST)
# chain: B1 chain with D27E, K28R, V129D, T163N, A183T, V188I, R195T
# B3: variant PD-L1 ECD-Fc N45D, V50A, I148V, R195G, N201D (Fc fusion, not shown: a dimerising Fc or GST)
# chain: B1 chain with D27E, V50A, I148V, A183T, V188I, R195G, N201D
# B4: variant PD-L1 ECD-Fc N45D, S75P, P198S (Fc fusion, not shown: a dimerising Fc or GST)
# chain: B1 chain with D27E, S75P, A183T, V188I, P198S
# B5: variant PD-L1 ECD-Fc N45D, K111T, R195G (Fc fusion, not shown: a dimerising Fc or GST)
# chain: B1 chain with D27E, K111T, A183T, V188I, R195G
# B6: variant PD-L1 ECD-Fc N45D, V50A, I119T, K144E (Fc fusion, not shown: a dimerising Fc or GST)
# chain: B1 chain with D27E, V50A, I119T, K144E, A183T, V188I
# B7: variant PD-L1 ECD-Fc K23N, N45D, S75P, N120S (Fc fusion, not shown: a dimerising Fc or GST)
# chain: B1 chain with K23N, D27E, S75P, N120S, A183T, V188I
# B8: variant PD-L1 ECD-Fc M41K, D43G, K44E, N45D, R195G, N201D (Fc fusion, not shown: a dimerising Fc or GST)
# chain: B1 chain with D27E, M41K, D43G, K44E, A183T, V188I, R195G, N201D
# B9: variant PD-L1 ECD-Fc N45D, T163I, K167R, R195G (Fc fusion, not shown: a dimerising Fc or GST)
# chain: B1 chain with D27E, T163I, K167R, A183T, V188I, R195G
# B10: variant PD-L1 ECD-Fc N45D, G102D, R194W, R195G (Fc fusion, not shown: a dimerising Fc or GST)
# chain: B1 chain with D27E, G102D, A183T, V188I, R194W, R195G
# B11: variant PD-L1 ECD-Fc N45D, Q89R, I98V (Fc fusion, not shown: a dimerising Fc or GST)
# chain: B1 chain with D27E, Q89R, I98V, A183T, V188I
# B12: variant PD-L1 ECD-Fc M41K, D43G, N45D, R64S, R195G (Fc fusion, not shown: a dimerising Fc or GST)
# chain: B1 chain with D27E, M41K, D43G, R64S, A183T, V188I, R195G
# B13: variant PD-L1 ECD-Fc N45D, K111T, T183A, I188V (Fc fusion, not shown: a dimerising Fc or GST)
# chain: B1 chain with D27E, K111T
# B14: variant PD-L1 ECD-Fc N45D, I148V, R195G (Fc fusion, not shown: a dimerising Fc or GST)
# chain: B1 chain with D27E, I148V, A183T, V188I, R195G
# B15: variant PD-L1 ECD-Fc N45D, T183A, T192S, R194G (Fc fusion, not shown: a dimerising Fc or GST)
# chain: B1 chain with D27E, V188I, T192S, R194G
# B16: variant PD-L1 ECD-Fc I98T, F173Y, L196S (Fc fusion, not shown: a dimerising Fc or GST)
# chain: B1 chain with D27E, D45N, I98T, F173Y, A183T, V188I, L196S
# B17: variant PD-L1 ECD-Fc K23N, N45D, Q73R, T163I (Fc fusion, not shown: a dimerising Fc or GST)
# chain: B1 chain with K23N, D27E, Q73R, T163I, A183T, V188I
# B18: variant PD-L1 ECD-Fc N45D, V50A, R195T (Fc fusion, not shown: a dimerising Fc or GST)
# chain: B1 chain with D27E, V50A, A183T, V188I, R195T
# B19: variant PD-L1 ECD-Fc V11E, N45D, T130A, P198T (Fc fusion, not shown: a dimerising Fc or GST)
# chain: B1 chain with V11E, D27E, T130A, A183T, V188I, P198T
# B20: variant PD-L1 ECD-Fc N45D, V50A, L124S, K144E, L179P, R195G (Fc fusion, not shown: a dimerising Fc or GST)
# chain: B1 chain with D27E, V50A, L124S, K144E, L179P, A183T, V188I, R195G
# B21: variant PD-L1 ECD-Fc N45D, R68L, F173L, D197G, P198S (Fc fusion, not shown: a dimerising Fc or GST)
# chain: B1 chain with D27E, R68L, F173L, A183T, V188I, D197G, P198S
# B22: variant PD-L1 ECD-Fc N45D, S99G, C137R, V207A (Fc fusion, not shown: a dimerising Fc or GST)
# chain: B1 chain with D27E, S99G, C137R, A183T, V188I, V207A
# B23: variant PD-L1 ECD-Fc N45D, E134G, L213P (Fc fusion, not shown: a dimerising Fc or GST)
# chain: B1 chain with D27E, E134G, A183T, V188I, L213P
# B24: variant PD-L1 ECD-Fc K28E, N45D, W149R, S158G, P198T (Fc fusion, not shown: a dimerising Fc or GST)
# chain: B1 chain with D27E, K28E, W149R, S158G, A183T, V188I, P198T
# B25: variant PD-L1 ECD-Fc N45D, N165Y, E170G (Fc fusion, not shown: a dimerising Fc or GST)
# chain: B1 chain with D27E, N165Y, E170G, A183T, V188I
# B26: variant PD-L1 ECD-Fc N45D, N113Y, R195S (Fc fusion, not shown: a dimerising Fc or GST)
# chain: B1 chain with D27E, N113Y, A183T, V188I, R195S
# B27: variant PD-L1 ECD-Fc N45D, I148V, R195G, N201D (Fc fusion, not shown: a dimerising Fc or GST)
# chain: B1 chain with D27E, I148V, A183T, V188I, R195G, N201D
# B28: variant PD-L1 ECD-Fc N45D, S131F, P198S (Fc fusion, not shown: a dimerising Fc or GST)
# chain: B1 chain with D27E, S131F, A183T, V188I, P198S
# B29: variant PD-L1 ECD-Fc M41K, D43G, N45D, R64S, S99G (Fc fusion, not shown: a dimerising Fc or GST)
# chain: B1 chain with D27E, M41K, D43G, R64S, S99G, A183T, V188I
# B30: variant PD-L1 ECD-Fc N45D, G52V, Q121L, P198S (Fc fusion, not shown: a dimerising Fc or GST)
# chain: B1 chain with D27E, G52V, Q121L, A183T, V188I, P198S
# B31: variant PD-L1 ECD-Fc N45D, F173I, S177C (Fc fusion, not shown: a dimerising Fc or GST)
# chain: B1 chain with D27E, F173I, S177C, A183T, V188I
# Molecular target: human PD-1 stably expressed on Jurkat/IL-2 reporter cells (Jurkat/PD-1 cells) (human, UniProt Q15116 25-288)
# Assay: flow cytometry, Jurkat/PD-1 cells
# human PD-1 stably expressed on Jurkat/IL-2 reporter cells (Jurkat/PD-1 cells), sequence (Q15116 25-288): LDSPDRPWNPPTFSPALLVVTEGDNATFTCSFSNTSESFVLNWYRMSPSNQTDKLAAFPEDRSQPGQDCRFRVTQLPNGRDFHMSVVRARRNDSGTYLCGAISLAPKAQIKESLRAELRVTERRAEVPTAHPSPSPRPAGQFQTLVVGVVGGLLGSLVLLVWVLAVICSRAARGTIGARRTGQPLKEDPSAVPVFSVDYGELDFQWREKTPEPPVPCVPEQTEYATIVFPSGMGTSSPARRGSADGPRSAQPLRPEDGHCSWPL
Fold Increase over WT PD-L1 ECD-Fc [fold],MFI at 20 nM conc. [MFI],Binder
26.6,133000,B1
27.4,137000,B2
26.2,131000,B3
25.9,130000,B4
13.1,65700,B5
6.8,34200,B6
26.4,132000,B7
28.9,145000,B8
26.7,134000,B9
2.7,13400,B10
18.1,90500,B11
27.4,137000,B12
21.7,109000,B13
21.8,109000,B14
0.3,1350,B15
0,236,B16

Fold Increase over WT PD-L1 ECD-Fc [fold],MFI at 20 nM conc. [MFI],Binder
27.8,139000,B17
28.3,142000,B18
27.4,137000,B19
3.6,18200,B20
11.8,59300,B21
0.2,834,B22
0.5,2260,B23
0.1,691,B24
17.8,89000,B25
22.4,112000,B26
26.1,131000,B27
23.2,116000,B28
26.9,135000,B29
0.1,296,B30
0.4,2200,B31
